Laboratory results taken from publication PMC4523182, “Biochemical Characterization of a Mycobacteriophage Derived DnaB Ortholog Reveals New Insight into the Evolutionary Origin of DnaB Helicases”.
One block for each molecule: values may come before it.

Key:
[1] = molecular target: Wildcat Gp80 (mycobacteriophage Wildcat); assay: SEC; analytical Superose 6 10/300 GL, FPLC, 0.4 ml/min, 40 mM Tris-HCl pH 7.5, 50 mM KCl, 2 mM DTT; Mw from a standard curve (thyroglobulin, beta-amylase, BSA, ovalbumin, cytochrome C)
[2] = molecular target: Wildcat Gp80 (mycobacteriophage Wildcat); assay: dynamic light scattering; higher protein concentrations (1 uM unless otherwise stated), 50 mM Tris-HCl pH 8.0, 50 mM KCl, 2 mM DTT, 1 mM MgCl2, 25°C; weight average hydrodynamic radius; no cofactor; oligomer also kept with 4 mM AMP-PNP and with 4 mM ATP plus 24 uM 41 mer ssDNA
[3] = molecular target: T1, WCGp80 (Wildcat Gp80, DnaB-type helicase) (Mycobacteriophage Wildcat, UniProt Q19XY0 1-441); assay: tryptophan fluorescence quenching; 40 nM protein; S6 Fig legend gives 56.44 nM; Binding buffer, pH and temperature not given in the material; Trp quenching ex 280/em 340 nm (helicase assay buffer E: 50 mM Tris-HCl pH 8.0, 50 mM KCl, 2 mM DTT, 0.25 mg/ml BSA, 4 mM MgCl2, 4 mM ATP, 4% sucrose, 37 C); conditions: protein: recombinant; tags: N-terminal His6 (pQE30); chain copies: 6; single strand
T1 sequence: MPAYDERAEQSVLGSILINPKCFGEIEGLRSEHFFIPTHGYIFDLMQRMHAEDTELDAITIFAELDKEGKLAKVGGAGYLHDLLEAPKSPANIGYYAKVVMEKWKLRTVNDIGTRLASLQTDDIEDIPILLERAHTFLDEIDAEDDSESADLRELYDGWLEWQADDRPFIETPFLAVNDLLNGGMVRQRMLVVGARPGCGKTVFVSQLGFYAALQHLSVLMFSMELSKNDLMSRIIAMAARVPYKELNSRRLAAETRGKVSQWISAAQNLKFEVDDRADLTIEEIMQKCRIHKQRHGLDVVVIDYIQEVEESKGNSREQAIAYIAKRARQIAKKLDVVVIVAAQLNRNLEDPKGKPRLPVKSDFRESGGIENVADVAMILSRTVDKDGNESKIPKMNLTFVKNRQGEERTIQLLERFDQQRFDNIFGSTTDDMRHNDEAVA

[4] = molecular target: T1, WCGp80 (Wildcat Gp80, DnaB-type …); assay: fluorescence polarization; one-site non-cooperative fit; Binding buffer, pH and temperature not given in the material; Trp quenching ex 280/em 340 nm (helicase assay buffer E: 50 mM Tris-HCl pH 8.0, 50 mM KCl, 2 mM DTT, 0.25 mg/ml BSA, 4 mM MgCl2, 4 mM ATP, 4% sucrose, 37 C); conditions: protein: recombinant; tags: N-terminal His6 (pQE30); chain copies: 6; label: 5' 6-FAM on oligo 2; fork 20 bp stem; 40 nt 5' tail on oligo1 and 40 nt 3' tail on oligo2
[5] = molecular target: T1, WCGp80 (Wildcat Gp80, DnaB-type …); assay: tryptophan fluorescence quenching; 40 nM protein; S6 Fig legend gives 152 nM; Binding buffer, pH and temperature not given in the material; Trp quenching ex 280/em 340 nm (helicase assay buffer E: 50 mM Tris-HCl pH 8.0, 50 mM KCl, 2 mM DTT, 0.25 mg/ml BSA, 4 mM MgCl2, 4 mM ATP, 4% sucrose, 37 C); conditions: protein: recombinant; tags: N-terminal His6 (pQE30); chain copies: 6; single strand

- stoichiometry N [1]: 6
- stoichiometry N [2]: 6
Molecule: Wildcat Gp80 (enzyme)

Molecule: TCGAGCTCGGTACCCGGGGATCCTCTAGAGTCGACCTGCAGG (ssDNA) [41-mer]
- Kd [3]: 58 nM

B1: fork substrate (oligo1/oligo2) (mixed)
DNA 1: GCCCTGATCACGGTACTCGGTTTTTTTTTTTTTTTTTTTTGGCTCCTCTAGACTCGACCG
DNA 2: CGGTCGAGTCTAGAGGAGCCTTTTTTTTTTTTTTTTTTTTTTTTTTTTTTTTTTTTTTTT
- Kd [4]: 9.5 nM

B2: 60-mer (oligo2) (ssDNA)
DNA: CGGTCGAGTCTAGAGGAGCCTTTTTTTTTTTTTTTTTTTTTTTTTTTTTTTTTTTTTTTT
- Kd [5]: 164 nM
